Test results: the Human Domainome abundance scans (Beltran et al. 2025)
± gives the uncertainty stated by the source.

B1: Histidine--tRNA ligase, cytoplasmic, residues 8 to 45; numbered along this chain, P12081 (parent)
chain: EELVKLQGERVRGLKQQKASAELIEEEVAKLLKLKAQL
B2: Spectrin alpha chain, erythrocytic 1, residues 979 to 1036; numbered along this chain, P02549 (parent)
chain: EQRVMALYDFQARSPREVTMKKGDVLTLLSSINKDWWKVEAADHQGIVPAVYVRRLAH

Variants of: B1
Assay: abundance fitness (aPCA) (normalised: wild type 0, dead -1); higher = more abundant; growth selection in yeast, the domain comes from the species named
Settings: Homo sapiens

Variant	abundance fitness
L23K	0.045 ± 0.091
L23H	-0.075 ± 0.11
L23Y	-0.358 ± 0.091
L23G	-0.143 ± 0.083
L23D	-0.072 ± 0.12
E1H	-1.02 ± 0.45
E1V	-0.661 ± 0.086
E1K	-0.165 ± 0.15
E1S	-0.737 ± 0.14
E1R	-0.992 ± 0.2
E1C	-1.18 ± 0.46
A19I	-0.538 ± 0.15
A19P	-0.145 ± 0.1
A19T	-0.174 ± 0.083
A19Q	-0.173 ± 0.094
A19G	-0.27 ± 0.076
A19R	-0.255 ± 0.079
A19L	-0.504 ± 0.088
A19W	-0.424 ± 0.12
K15L	-0.13 ± 0.075
K15M	0.149 ± 0.12
K15V	-0.103 ± 0.087
K15W	-0.412 ± 0.094
K15D	-0.271 ± 0.14
K15S	-0.184 ± 0.082

Variant	abundance fitness
K15A	-0.107 ± 0.069
K15C	-0.27 ± 0.093
E25H	0 ± 0.09
E25R	-0.064 ± 0.069
E25Q	0.071 ± 0.097
E25I	-0.621 ± 0.13
E25D	0.012 ± 0.097
E25P	-0.208 ± 0.095
E25A	0.128 ± 0.091
E25G	-0.052 ± 0.077
E25C	-0.331 ± 0.16
V11F	-0.571 ± 0.089
V11Y	-0.552 ± 0.11
V11M	-0.106 ± 0.1
V11Q	0.011 ± 0.091
V11H	-0.209 ± 0.11
V11A	-0.169 ± 0.08
V11K	-0.255 ± 0.094
V11N	-0.334 ± 0.096
V11E	0.055 ± 0.15
V11R	-0.03 ± 0.099
E22Y	-0.288 ± 0.11
E22G	-0.03 ± 0.096
E22H	-0.156 ± 0.14
E22F	-0.311 ± 0.091

Variant	abundance fitness
E22N	0.055 ± 0.12
E22T	0.091 ± 0.08
K33Q	0.037 ± 0.1
K33V	-0.436 ± 0.083
K33P	-0.056 ± 0.097
K33C	-0.451 ± 0.093
K33N	-0.203 ± 0.26
K33G	-0.147 ± 0.089
K33S	0.071 ± 0.074
E2T	-0.591 ± 0.081
E2G	-0.868 ± 0.2
E2S	-0.327 ± 0.085
E2Y	-0.452 ± 0.11
E2P	-0.9 ± 0.11
E2Q	-0.472 ± 0.11
E2I	-0.369 ± 0.087
E2R	-0.661 ± 0.1
E2H	-0.195 ± 0.079
E2N	-0.049 ± 0.11
E2W	-0.97 ± 0.098
E2L	-0.632 ± 0.094
A21E	0.085 ± 0.2
A21Y	-0.208 ± 0.11
A21G	-0.151 ± 0.078
A21P	0.184 ± 0.072

Variant	abundance fitness
A21F	-0.075 ± 0.11
A21I	-0.101 ± 0.12
A21L	-0.058 ± 0.096
A21T	-0.006 ± 0.11
A21N	0.119 ± 0.13
A21H	-0.004 ± 0.086
Q16S	-0.004 ± 0.078
Q16N	0.076 ± 0.1
Q16G	-0.242 ± 0.079
Q16R	-0.11 ± 0.082
Q16E	0.132 ± 0.095
Q16A	0.144 ± 0.083
Q16F	-0.397 ± 0.08
Q16V	-0.039 ± 0.1
Q16L	-0.057 ± 0.072
Q16Y	-0.427 ± 0.11
L34E	0.083 ± 0.084
L34V	-0.064 ± 0.093
L34R	-0.151 ± 0.097
L34P	0.209 ± 0.089
L32V	-0.076 ± 0.083
L32S	0.112 ± 0.09
L32P	0.098 ± 0.11
L32T	0.117 ± 0.13
L32M	0.206 ± 0.087

Variant	abundance fitness
L32F	-0.289 ± 0.076
L32W	-0.098 ± 0.1
L32I	-0.093 ± 0.1
L32N	0.247 ± 0.091
Q17M	0.052 ± 0.11
Q17G	-0.071 ± 0.08
Q17S	0.055 ± 0.084
Q17R	-0.196 ± 0.073
Q7M	-0.452 ± 0.092
Q7S	-0.433 ± 0.068
Q7R	-0.649 ± 0.081
Q7K	-0.693 ± 0.18
Q7T	-0.357 ± 0.073
Q7I	-0.526 ± 0.083
Q7A	-0.348 ± 0.082
Q7G	-0.619 ± 0.09
Q7C	-0.616 ± 0.096
Q7N	-0.485 ± 0.12
S20Q	-0.057 ± 0.1
S20T	-0.132 ± 0.079
S20H	-0.128 ± 0.11
S20L	-0.781 ± 0.1
S20D	0.038 ± 0.073
S20V	-0.693 ± 0.11
S20M	-0.431 ± 0.094

Variant	abundance fitness
S20E	0.068 ± 0.12
S20Y	-0.945 ± 0.17
S20F	-1.09 ± 0.1
S20K	-0.118 ± 0.083
S20C	-0.09 ± 0.095
I24M	-0.03 ± 0.077
I24G	-0.068 ± 0.085
I24Y	0.131 ± 0.18
I24K	0 ± 0.09
I24W	-1.01 ± 0.31
I24T	-0.012 ± 0.088
I24F	0.069 ± 0.091
I24H	0.169 ± 0.1
I24A	-0.027 ± 0.078
L3C	-0.896 ± 0.098
L3T	-0.024 ± 0.087
L3Q	0.153 ± 0.1
L3Y	-0.549 ± 0.077
L3W	-1.54 ± 0.12
L3F	-0.341 ± 0.099
E27I	-1.47 ± 0.15
E27M	-0.874 ± 0.16
E27P	-0.214 ± 0.091
E27R	-0.741 ± 0.084
E27N	-0.079 ± 0.078

Variant	abundance fitness
E27K	-0.649 ± 0.15
E27A	-0.108 ± 0.089
K35L	-0.051 ± 0.073
K35S	0.611 ± 0.07
K35Y	-0.518 ± 0.098
K35N	0.597 ± 0.12
K35C	0.383 ± 0.09
K35H	-0.532 ± 0.091
K35F	-0.893 ± 0.11
K35G	0.78 ± 0.098
R12W	-0.018 ± 0.18
R12Q	0.101 ± 0.087
R12L	-0.034 ± 0.078
R12V	-0.008 ± 0.081
R12H	0.005 ± 0.075
R12T	0.05 ± 0.087
R12S	0.098 ± 0.084
L31N	0.22 ± 0.11
L31W	-0.172 ± 0.093
L31F	-0.397 ± 0.084
L31E	0.257 ± 0.09
L31R	-0.126 ± 0.07
L31Q	0.087 ± 0.12
L31V	-0.436 ± 0.073
L31T	-0.058 ± 0.093

Variant	abundance fitness
V4S	-0.264 ± 0.077
V4T	-0.19 ± 0.082
V4M	-0.079 ± 0.092
V4H	-0.463 ± 0.089
V4C	-0.46 ± 0.097
K5S	-0.531 ± 0.072
K5P	-0.54 ± 0.078
K5A	-0.234 ± 0.085
K5V	-0.611 ± 0.084
K5W	-0.383 ± 0.13
K18D	0.221 ± 0.1
K18I	-0.375 ± 0.14
K18F	-0.45 ± 0.11
K18W	-0.619 ± 0.13
K18R	-0.06 ± 0.074
K18A	0.047 ± 0.085
K18V	-0.236 ± 0.075
K18M	0.067 ± 0.31
K18H	0.239 ± 0.11
K18P	0.004 ± 0.082
L38I	-0.389 ± 0.11
L38V	-0.209 ± 0.18
L38D	0.003 ± 0.26
L38P	-0.026 ± 0.08
L38F	-0.526 ± 0.12

Variant	abundance fitness
L38A	0.15 ± 0.14
A29W	-0.804 ± 0.17
A29R	-0.189 ± 0.076
A29I	-0.618 ± 0.11
A29H	-0.265 ± 0.093
A29F	-0.8 ± 0.11
A29K	-0.299 ± 0.17
A29N	-0.183 ± 0.081
A29C	-0.415 ± 0.093
A29Q	0.07 ± 0.11
G13Q	0.253 ± 0.1
G13M	0.324 ± 0.099
G13A	0.23 ± 0.083
G13W	0.055 ± 0.082
G13T	0.218 ± 0.083
G13N	0.307 ± 0.19
G13Y	-0.136 ± 0.15
G13H	0.079 ± 0.094
E9K	-0.324 ± 0.11
E9R	-0.464 ± 0.086
E9D	-0.001 ± 0.13
E9S	-0.291 ± 0.081
E9V	-0.653 ± 0.077
E9L	-0.466 ± 0.084
E9M	-0.232 ± 0.1

Variant	abundance fitness
E9T	-0.246 ± 0.075
E9I	-0.716 ± 0.097
E9N	0.035 ± 0.13
E9A	-0.186 ± 0.091
E9G	-0.357 ± 0.084
E9W	-0.726 ± 0.19
Q37G	0.191 ± 0.089
Q37S	0.065 ± 0.076
Q37K	0.041 ± 0.091
Q37E	0.28 ± 0.16
Q37C	-0.057 ± 0.12
Q37F	-0.693 ± 0.16
Q37T	-0.113 ± 0.075
Q37N	-0.04 ± 0.11
Q37A	0.152 ± 0.089
G8H	-0.409 ± 0.1
G8E	0.44 ± 0.11
G8M	0.106 ± 0.15
G8L	-0.002 ± 0.075
G8Q	0.194 ± 0.11
G8Y	-0.285 ± 0.094
G8K	0.377 ± 0.27
G8V	0.085 ± 0.098
G8W	-0.452 ± 0.27
G8F	-0.287 ± 0.12

Variant	abundance fitness
K30E	0.1 ± 0.09
K30Q	-0.102 ± 0.12
K30G	-0.364 ± 0.11
K30Y	-0.484 ± 0.11
K30S	-0.218 ± 0.069
K30L	-0.211 ± 0.076
K30D	0.072 ± 0.15
K30H	-0.247 ± 0.097
R10P	0.053 ± 0.081
R10Y	-0.125 ± 0.12
R10T	0.013 ± 0.081
R10E	-0.044 ± 0.093
R10M	-0.06 ± 0.098
R10L	-0.026 ± 0.073
L14M	0.053 ± 0.082
L14Y	-0.458 ± 0.14
L14W	-0.467 ± 0.1
L14R	-0.332 ± 0.08
L14A	0.064 ± 0.088
L14E	0.053 ± 0.1
L14D	-0.24 ± 0.1
L14G	-0.184 ± 0.078
L14C	-0.119 ± 0.11
L14K	-0.209 ± 0.12
L6N	-0.017 ± 0.1

Variant	abundance fitness
L6K	0.155 ± 0.12
L6A	0.194 ± 0.071
L6Y	-0.261 ± 0.091
L6R	0.051 ± 0.098
L6P	-0.211 ± 0.1
L6F	-0.102 ± 0.1
V28N	0.081 ± 0.098
V28S	0.094 ± 0.08
V28R	-0.027 ± 0.084
V28F	-0.378 ± 0.078
V28T	0.159 ± 0.099
V28G	-0.195 ± 0.11
V28M	0.06 ± 0.1
V28D	0.152 ± 0.11
V28L	-0.271 ± 0.076
V28Q	0.366 ± 0.1
V28H	-0.012 ± 0.1
E26Q	0.139 ± 0.093
E26I	0.086 ± 0.13
E26G	-0.146 ± 0.11
E26V	-0.116 ± 0.084
E26W	-0.594 ± 0.12

Variants of: B2
Assay: as above
Settings: Homo sapiens

Variant	abundance fitness
I47E	-0.727 ± 0.43
I47S	-0.659 ± 0.23
V48R	-0.551 ± 0.19
V48M	-0.556 ± 0.36
V48L	-0.717 ± 0.19
A12V	-0.848 ± 0.38
K38Q	0.041 ± 0.24
K38E	0.281 ± 0.19
M5W	-0.85 ± 0.17
R3Q	-0.272 ± 0.11
V4R	-0.877 ± 0.12
P49W	-0.792 ± 0.41
L56S	-0.006 ± 0.21
L56T	-0.448 ± 0.3
Y52T	-0.678 ± 0.17
Y52R	-0.53 ± 0.22
S30Y	-0.108 ± 0.49
S30A	-0.657 ± 0.14
A42R	-0.243 ± 0.16

Variant	abundance fitness
A42N	0.315 ± 0.2
A6K	-0.73 ± 0.28
N33D	0.224 ± 0.22
L28S	-0.726 ± 0.39
Q45P	-0.565 ± 0.28
T19A	-0.371 ± 0.17
D35A	-0.541 ± 0.096
D35P	-0.867 ± 0.42
D9L	-0.566 ± 0.16
D9V	-0.934 ± 0.14
A57R	-0.053 ± 0.16
A57C	-0.092 ± 0.15
V53P	-0.579 ± 0.42
V53L	0.13 ± 0.1
F10Y	0.625 ± 0.12
E40L	-0.652 ± 0.12
H44P	-0.95 ± 0.17
V51E	-0.31 ± 0.24
